Assay results: patent US11653679B2, “High-purity steviol glycosides” (PureCircle Sdn Bhd, priority 2014, dated 2023)

Experiments:
Format in all cases: biochemical
[1] = Catalytic test Rebaudioside A to Rebaudioside D with in-vitro expressed UDP-glucosyltransferases (Examples 20, 21), HPLC; conditions: for Steviol glycoside conversion in reaction mixture, Reb A / Steviol glycoside conversion in reaction mixture, Reb D / Steviol glycoside conversion in reaction mixture, Reb UNK (later identified as reb D2): 0.5 mM Rebaudioside A, 30° C., HPLC; for Conversion RebA to RebD: in-vitro expressed enzyme
Experimental: The prepared expression medium mix was added to the plasmid solution and the solution was allowed to incubate at 30° C. for 3 hours while mixing the mixture every 45 minutes. 5 μL of the mixture was frozen whereas the remainder was used for the catalytic test for the conversion of Rebaudioside A to Rebaudioside D.
(§1) 430 μL of a reaction mixture containing 0.5 mM Rebaudioside A, 3 mM MgCl2, 50 mM phosphate buffer (pH7.2) and 2.5 mM UDP-glucose was added to a 1.5 mL sterile microtube. 52 μl of the enzyme expression medium was added and the resulting mixture was allowed to react at 30° C. for 24 hours. 125 μL samples were taken after 2 hours, 16 hours and 24 hours and added to a 115 μL of 60% methanol and 10 μL of 2 N H2SO4. The quenched sample was centrifuged at 18,000 g for 2 minutes at RT. 200 μL was transferred to an HPLC vial and analyzed.
The HPLC assay was performed as follows:
as §1, with “μL” for “μl”, “to” for “to an”
(§2) The HPLC assay was performed as described in EXAMPLE 20.

[2] = Activity of in-vivo produced enzymes for transformation of Rebaudioside A (Example 22); conditions: for Conversion after 45 hrs.: 0.5 mM, in-vivo produced enzyme lysate; for Reb D selectivity: after 45 hrs.
Experimental: Activity tests were performed at 5 mL scale with 1,000 μL of thawed lysate for the transformation of Rebaudioside A using 0.5 mM of substrate, 2.5 mM of UDP-Glucose and 3 mM MgCl2 in 50 mM Sodium Phosphate buffer at pH 7.2. Samples were taken and analyzed by HPLC.
as §2

[3] = Transformation of Rebaudioside D to Rebaudioside M with UGT76G1 (Examples 6, 13), HPLC; conditions: per mL of lysate; 1 U transforms 1 μmol in 1 hour at 30° C. and pH 7.2
Experimental: The total volume of the reaction was 2 mL with the following composition: 50 mM sodium phosphate buffer pH 7.2, 3 mM MgCl2, 3.8 mM UDP-glucose, 0.5 mM Rebaudioside D and 180 μL of in-vitro produced UGT76G1. The reactions were run at 30° C. on an orbitary shaker at 135 rpm. For each sample, 400 μL of reaction mixture was quenched with 40 μL of 2N H2SO4 and 360 μL of 60% MeOH. After centrifugation, the supernatant was analyzed by HPLC (CAD).
(§3) Activity tests were performed on a 5 mL scale with 500 μL of thawed lysate for the transformation of Stevioside to Rebaudioside A and Rebaudioside D to Rebaudioside M using 0.5 mM of substrate, 2.5 mM of UDP-Glucose and 3 mM MgCl2 in 50 mM Sodium Phosphate buffer at pH 7.2. Samples were taken and analyzed by HPLC.

[4] = Transformation of Stevioside to Rebaudioside A with UGT76G1 lysate (Examples 4, 13), HPLC; conditions: per mL of lysate; 1 U transforms 1 μmol in 1 hour at 30° C. and pH 7.2
Experimental: The total volume of the reaction was 5.0 mL with the following composition: 50 mM sodium phosphate buffer pH 7.2, 3 mM MgCl2, 2.5 mM UDP-glucose, 0.5 mM Stevioside and 500 μl, of UGT76G1 thawed lysate. The reactions were run at 30° C. on an orbitary shaker at 135 rpm. For each sample, 460 μL of the reaction mixture was quenched with 40 μL of 2N H2SO4 and 420 μL of methanol/water (6/4). The samples were immediately centrifuged and kept at 10° C. before analysis by HPLC (CAD).
as §3

| Reb D selectivity [2] | Molecule | Steviol glycoside conversion in reaction mixture, Reb A [1] | Steviol glycoside conversion in reaction mixture, Reb D [1] | Steviol glycoside conversion in reaction mixture, Reb UNK (later identified as reb D2) [1] | Conversion RebA to RebD [1] | Conversion after 45 hrs. [2] | Transformation activity Rebaudioside D to Rebaudioside M [3] | Transformation activity Stevioside to Rebaudioside A [4] |
| --- | --- | --- | --- | --- | --- | --- | --- | --- |
| 100% | gi115454819_NP_001051010.1: Os03g0702500 [Oryza sativa Japonica Group], SEQ ID NO:3 (protein, listed as Oryza sativa) MDDAHSSQSPLHVVIFPWLAFGHLLPCLDLAERLAARGHRVSFVSTPRNLARLPPVRPELAELVDLVALPLPRVDGLPDGAEATSDVPFDKFELHRKAFDGLAAPFSAFLDTACAGGKRPDWVLADLMHHWVALASQERGVPCAMILPCSAAVVASSAPPTESSADQREAIVRSMGTAAPSFEAKRATEEFATEGASGVSIMTRYSLTLQRSKLVAMRSCPELEPGAFTILTRFYGKPVVPFGLLPPRPDGARGVSKNGKHDAIMQWLDAQPAKSVVYVALGSEAPMSADLLRELAHGLDLAGTRFLWAMRKPAGVDADSVLPAGFLGRTGERGLVTTRWAPQVSILAHAAVCAFLTHCGWGSVVEGLQFGHPLIMLPILGDQGPNARILEGRKLGVAVPRNDEDGSFDRGGVAGAVRAVVVEEEGKTFFANARKLQEIVADREREERCIDEFVQHLTSWNELKNNSDGQYP | 96.7 % area | 2.1 % area |  | Active | 1.1% |  |  |
| Reb D Not detected | gi222619587_EEE55719.1: hypothetical protein OsJ_04191 [Oryza sativa Japonica Group], SEQ ID NO:6 (protein, listed as Oryza sativa) MHVVMLPWLAFGHILPFAEFAKRVARQGHRVTLFSTPRNTRRLIDVPPSLAGRIRVVDIPLPRVEHLPEHAEATIDLPSNDLRPYLRRAYDEAFSRELSRLLQETGPSRPDWVLADYAAYWAPAAASRHGVPCAFLSLFGAAALCFFGPAETLQGRGPYAKTEPAHLTAVPEYVPFPTTVAFRGNEARELFKPSLIPDESGVSESYRFSQSIEGCQLVAVRSNQEFEPEWLELLGELYQKPVIPIGMFPPPPPQDVAGHEETLRWLDRQEPNSVVYAAFGSEVKLTAEQLQRIALGLEASELPFIWAFRAPPDAGDGDGLPGGFKERVNGRGVVCRGWVPQVKFLAHASVGGFLTHAGWNSIAEGLANGVRLVLLPLMFEQGLNARQLAEKKVAVEVARDEDDGSFAANDIVDALRRVMVGEEGDEFGVKVKELAKVFGDDEVNDRYVRDFLKCLSEYKMQRQG | 92.8 % area | 0.14 % area | 7.0 % area | Active | 2.9% |  |  |

Second part, the molecule before the results:

| Molecule | Reb D selectivity [2] | Steviol glycoside conversion in reaction mixture, Reb A [1] | Steviol glycoside conversion in reaction mixture, Reb D [1] | Steviol glycoside conversion in reaction mixture, Reb UNK (later identified as reb D2) [1] | Conversion RebA to RebD [1] | Conversion after 45 hrs. [2] | Transformation activity Rebaudioside D to Rebaudioside M [3] | Transformation activity Stevioside to Rebaudioside A [4] |
| --- | --- | --- | --- | --- | --- | --- | --- | --- |
| gi297795735_XP_002865752.1: UDP-glucoronosyl/UDP-glucosyl transferase family protein [Arabidopsis lyrata subsp. lyrata], SEQ ID NO:7 (protein, listed as Arabidopsis lyrata) MDDKKEEVMHIAMFPWLAMGHLLPFLRLSKLLAQKGHKISFISTPRNILRLPKLPSNLSSSITFVSFPLPSISGLPPSSESSMDVPYNKQQSLKAAFDLLQPPLTEFLRLSSPDWIIYDYASHWLPSIAKELGISKAFFSLFNAATLCFMGPSSSLIEESRSTPEDFTVVPPWVPFKSTIVFRYHEVSRYVEKTDEDVTGVSDSVRFGYTIDGSDAVFVRSCPEFEPEWFSLLQDLYRKPVFPIGFLPPVIEDDDDDTTWVRIKEWLDKQRVNSVVYVSLGTEASLRREELTELALGLEKSETPFFWVLRNEPQIPDGFEERVKGRGMVHVGWVPQVKILSHESVGGFLTHCGWNSVVEGIGFGKVPIFLPVLNEQGLNTRLLQGKGLGVEVLRDERDGSFGSDSVADSVRLVMIDDAGEEIREKVKLMKGLFGNMDENIRYVDELVGFMRNDESSQLKEEEEEDDCSDDQSSEVSSETDEKELNLDLKEEKRRISVYKSLSSEFDDYVANEKMG | Reb D Not detected | 95.8 % area | 0.28 % area | 3.9 % area | Active | 0.0% |  |  |
| Example 12: UGT76G1 lysate prepared by pCOLDIII plasmid and Origami2 (DE3) expression strain (protein, UniProt Q6VAB4 1-458, looked up, E. coli lysate, pCOLDIII, UGT76G1 lysate prepared by pCOLDIII plasmid and Origami2 (DE3) expression strain) UDP-glycosyltransferase 76G1: MENKTETTVRRRRRIILFPVPFQGHINPILQLANVLYSKGFSITIFHTNFNKPKTSNYPHFTFRFILDNDPQDERISNLPTHGPLAGMRIPIINEHGADELRRELELLMLASEEDEEVSCLITDALWYFAQSVADSLNLRRLVLMTSSLFNFHAHVSLPQFDELGYLDPDDKTRLEEQASGFPMLKVKDIKSAYSNWQILKEILGKMIKQTKASSGVIWNSFKELEESELETVIREIPAPSFLIPLPKHLTASSSSLLDHDRTVFQWLDQQPPSSVLYVSFGSTSEVDEKDFLEIARGLVDSKQSFLWVVRPGFVKGSTWVEPLPDGFLGERGRIVKWVPQQEVLAHGAIGAFWTHSGWNSTLESVCEGVPMIFSDFGLDQPLNARYMSDVLKVGVYLENGWERGEIANAIRRVMVDEEGEYIRQNARVLKQKADVSLMKGGSSYESLESLVSYISSL |  |  |  |  |  |  | 0.20 U mL^−1 | 37 U mL^−1 |
| Example 7: UGT76G1 lysate prepared by pET30a+ plasmid and BL21 (DE3) expression strain (protein, UniProt Q6VAB4 1-458, looked up, E. coli lysate, pET30a+, UGT76G1 lysate prepared by pET30a+ plasmid and BL21 (DE3) expression strain) UDP-glycosyltransferase 76G1: MENKTETTVRRRRRIILFPVPFQGHINPILQLANVLYSKGFSITIFHTNFNKPKTSNYPHFTFRFILDNDPQDERISNLPTHGPLAGMRIPIINEHGADELRRELELLMLASEEDEEVSCLITDALWYFAQSVADSLNLRRLVLMTSSLFNFHAHVSLPQFDELGYLDPDDKTRLEEQASGFPMLKVKDIKSAYSNWQILKEILGKMIKQTKASSGVIWNSFKELEESELETVIREIPAPSFLIPLPKHLTASSSSLLDHDRTVFQWLDQQPPSSVLYVSFGSTSEVDEKDFLEIARGLVDSKQSFLWVVRPGFVKGSTWVEPLPDGFLGERGRIVKWVPQQEVLAHGAIGAFWTHSGWNSTLESVCEGVPMIFSDFGLDQPLNARYMSDVLKVGVYLENGWERGEIANAIRRVMVDEEGEYIRQNARVLKQKADVSLMKGGSSYESLESLVSYISSL |  |  |  |  |  |  | 0.31 U mL^−1 | 29 U mL^−1 |
| gi187373030_ACD03249.1: UDP-glycosyltransferase [Avena strigosa], SEQ ID NO:4 (protein, listed as Avena strigosa) MAVKDEQQSPLHILLFPFLAPGHLIPIADMAALFASRGVRCTILTTPVNAAIIRSAVDRANDAFRGSDCPAIDISVVPFPDVGLPPGVENGNALTSPADRLKFFQAVAELREPFDRFLADNHPDAVVSDSFFHWSTDAAAEHGVPRLGFLGSSMFAGSCNESTLHNNPLETAADDPDALVSLPGLPHRVELRRSQMMDPKKRPDHWALLESVNAADQKSFGEVFNSFHELEPDYVEHYQTTLGRRTWLVGPVALASKDMAGRGSTSARSPDADSCLRWLDTKQPGSVVYVSFGTLIRFSPAELHELARGLDLSGKNFVWVLGRAGPDSSEWMPQGFADLITPRGDRGFIIRGWAPQMLILNHRALGGFVTHCGWNSTLESVSAGVPMVTWPRFADQFQNEKLIVEVLKVGVSIGAKDYGSGIENHDVIRGEVIAESIGKLMGSSEESDAIQRKAKDLGAEARSAVENGGSSYNDVGRLMDELMARRSSVKVGEDIIPTNDGL | 100% | 99.4 % area | 0.6 % area |  | Active | 0.8% |  |  |
